Assay results published in US20230045873A1 (ONCOONE RESEARCH AND DEVELOPMENT, published 2023).

Biological target: T1, oxMIF (recombinant human MIF immobilized into microwell plates, transforming MIF to oxMIF) (human, UniProt P14174 2-115)
T1 construct: also called immobilized MIF (oxMIF); immobilized oxMIF
Assay: ELISA on immobilized MIF (oxMIF), protein L-HRP detection, mean of triplicate
Method: Recombinant human MIF (1 μg/ml) diluted in PBS was immobilized into microwell plates (transforming MIF to oxMIF according to Thiele M. et al., 2015, J Immunol 2015; 195:2343-2352). After blocking, the bispecific antibodies were added to the plates at different concentrations. Bound bispecific antibodies were detected using protein L-HRP conjugate. Plates were developed by adding 3 3′5 5′tetramethylbenzidine (TMB) and chromogenic reaction was stopped with […]. OD was measured at 450 nm.
The binding curves of anti-oxMIF/CD3 bispecific antibodies C0061 and C0062 binding towards immobilized MIF (oxMIF) in an ELISA are depicted in FIG. 4. The monospecific anti-oxMIF antibody C0008 was used as positive control for oxMIF binding. EC50 values of the binding curves, which reflect rough KD estimates, were calculated by 4-parameter fit.

T1 sequence (P14174 2-115 limits assumed): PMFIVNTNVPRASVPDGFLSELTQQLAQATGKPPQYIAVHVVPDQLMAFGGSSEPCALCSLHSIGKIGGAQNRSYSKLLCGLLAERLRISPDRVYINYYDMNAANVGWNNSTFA

EC50: 0.9 nM
B1: C0061 (Anti-oxMIF Fab and anti-oxMIF/anti-CD3 BiTE fused to Fc; Fab-BiTE-Fc) (bispecific antibody, human IgG1, kappa)
heavy: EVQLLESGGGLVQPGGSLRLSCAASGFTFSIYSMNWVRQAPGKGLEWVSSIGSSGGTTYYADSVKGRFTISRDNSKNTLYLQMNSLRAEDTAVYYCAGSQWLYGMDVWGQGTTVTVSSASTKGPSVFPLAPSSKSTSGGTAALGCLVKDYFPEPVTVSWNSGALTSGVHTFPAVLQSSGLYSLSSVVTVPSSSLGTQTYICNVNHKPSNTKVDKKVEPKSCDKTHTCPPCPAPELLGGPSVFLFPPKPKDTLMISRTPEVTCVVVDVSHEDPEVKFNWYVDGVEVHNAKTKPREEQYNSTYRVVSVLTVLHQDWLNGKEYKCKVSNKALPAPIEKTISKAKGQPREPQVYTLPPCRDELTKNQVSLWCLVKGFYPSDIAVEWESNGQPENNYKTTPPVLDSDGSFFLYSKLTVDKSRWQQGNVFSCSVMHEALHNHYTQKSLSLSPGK
chain: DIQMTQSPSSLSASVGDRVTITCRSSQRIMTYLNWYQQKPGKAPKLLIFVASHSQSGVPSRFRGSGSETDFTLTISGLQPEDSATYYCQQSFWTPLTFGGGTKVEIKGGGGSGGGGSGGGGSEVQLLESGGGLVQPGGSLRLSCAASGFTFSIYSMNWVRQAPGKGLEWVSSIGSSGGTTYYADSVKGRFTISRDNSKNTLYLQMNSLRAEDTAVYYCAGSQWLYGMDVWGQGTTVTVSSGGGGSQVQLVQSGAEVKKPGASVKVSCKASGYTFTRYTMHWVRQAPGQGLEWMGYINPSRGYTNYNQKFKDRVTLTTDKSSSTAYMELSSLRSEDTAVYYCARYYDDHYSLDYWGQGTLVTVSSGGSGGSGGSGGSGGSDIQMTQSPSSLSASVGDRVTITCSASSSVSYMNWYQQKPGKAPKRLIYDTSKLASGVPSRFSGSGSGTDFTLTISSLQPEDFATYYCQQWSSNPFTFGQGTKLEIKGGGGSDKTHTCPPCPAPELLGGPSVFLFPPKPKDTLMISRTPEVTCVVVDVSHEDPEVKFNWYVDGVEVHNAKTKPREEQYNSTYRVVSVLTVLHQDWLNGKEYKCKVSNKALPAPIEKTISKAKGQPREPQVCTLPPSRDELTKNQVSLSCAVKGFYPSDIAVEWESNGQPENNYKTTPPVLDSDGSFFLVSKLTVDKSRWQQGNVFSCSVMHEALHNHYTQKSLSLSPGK
light: DIQMTQSPSSLSASVGDRVTITCRSSQRIMTYLNWYQQKPGKAPKLLIFVASHSQSGVPSRFRGSGSETDFTLTISGLQPEDSATYYCQQSFWTPLTFGGGTKVEIKRTVAAPSVFIFPPSDEQLKSGTASVVCLLNNFYPREAKVQWKVDNALQSGNSQESVTEQDSKDSTYSLSSTLTLSKADYEKHKVYACEVTHQGLSSPVTKSFNRGEC
notes: Three polypeptides; bivalent for oxMIF, monovalent for CD3
